Data on 1 variant can be found in IntAct's records for PubMed 23933751.

The labels stand for the following.
B1: F-box only protein 7 (Homo sapiens), Q9Y3I1 (parent)
chain: MRLRVRLLKRTWPLEVPETEPTLGHLRSHLRQSLLCTWGYSSNTRFTITLNYKDPLTGDEETLASYGIVSGDLICLILQDDIPAPNIPSSTDSEHSSLQNNEQPSLATSSNQTSMQDEQPSDSFQGQAAQSGVWNDDSMLGPSQNFEAESIQDNAHMAEGTGFYPSEPMLCSESVEGQVPHSLETLYQSADCSDANDALIVLIHLLMLESGYIPQGTEAKALSMPEKWKLSGVYKLQYMHPLCEGSSATLTCVPLGNLIVVNATLKINNEIRSVKRLQLLPESFICKEKLGENVANIYKDLQKLSRLFKDQLVYPLLAFTRQALNLPDVFGLVVLPLELKLRIFRLLDVRSVLSLSAVCRDLFTASNDPLLWRFLYLRDFRDNTVRVQDTDWKELYRKRHIQRKESPKGRFVMLLPSSTHTIPFYPNPLHPRPFPSSRLPPGIIGGEYDQRPTLPYVGDPISSLIPGPGETPSQFPPLRPRFDPVGPLPGPNPILPGRGGPNDRFPFRPSRGRPTDGRLSFM

In this assay the parent is B1. The note with it: with prkn_human PRKN.
T22M: the “effect of a mutation on the interaction” value is “disrupting interaction”.
